Measurements as given in patent US20180111996A1 (Merck Sharp & Dohme, published 2018).
Positions count from the first letter of the chain named. Names may count otherwise. Like-named read-outs stand apart in the source and are kept apart here.

Tests used:
[1] = target: T1, human PD-1 (hPD-1) receptor expressed on cells (human, UniProt Q15116 25-288); assay: CELISA on CHO cells expressing human PD-1, 450/620 nm
T1 construct: whole, on cells; also called hPD-1/CHO; CHO-hPD1

[2] = target: T2, mouse PD-1 receptor on stably transfected CHO-K1 cells (mouse, UniProt Q02242 25-288); assay: CELISA and other assays on mouse PD-1 transfected CHO-K1 cells
T2 construct: whole, on cells
T2 sequence (looked up): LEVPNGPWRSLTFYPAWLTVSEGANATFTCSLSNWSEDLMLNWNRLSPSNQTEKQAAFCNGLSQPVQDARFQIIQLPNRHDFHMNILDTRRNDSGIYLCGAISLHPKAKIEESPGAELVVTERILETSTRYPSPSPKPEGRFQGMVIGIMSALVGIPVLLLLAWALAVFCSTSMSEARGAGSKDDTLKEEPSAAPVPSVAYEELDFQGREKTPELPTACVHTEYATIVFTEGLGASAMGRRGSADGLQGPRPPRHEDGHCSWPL

[3] = target: T1, human PD-1 (hPD-1) receptor expressed …; assay: FMAT competition on CHO-hPD-1 cells; blocked ligand: fluorescently labelled hPD-L2/Fc at a constant concentration
[4] = target: T3, cynomolgus macaque PD-1 receptor on stably transfected CHO-K1 cells (cynomolgus macaque, UniProt B0LAJ3 25-288); assay: CELISA on cynomolgus PD-1 transfected CHO-K1 cells
T3 construct: also called cynomolgus PD-1; cynomolgous PD-1

[5] = target: T1, human PD-1 (hPD-1) receptor expressed …; assay: FACS, blockade of hPD-L1/Fc binding to CHO cells expressing human PD-1
[6] = target: T1, human PD-1 (hPD-1) receptor expressed …; assay: cell-based or functional assay
[7] = target: T1, human PD-1 (hPD-1) receptor expressed …; assay: FACS, blockade of hPD-L1/Fc binding to CHO cells expressing human PD-1; remark: listed apart in the source
[8] = target: T4, hPD-1/Fc (R & D Systems) (human, UniProt Q15116 25-167); assay: bio-light interferometry (ForteBio Octet); lower end tied to 09A by Table II
T4 construct: also called human PD-1/Fc; PD-1-Fc fusion protein; not shown: Fc part of the bought fusion protein, not described

[9] = target: T1, human PD-1 (hPD-1) receptor expressed …; assay: CELISA on CHO-hPD-1 cells
[10] = target: T1, human PD-1 (hPD-1) receptor expressed …; assay: FMAT, blockade of labeled hPD-L1/Fc binding to CHO-hPD-1 cells
[11] = target: T4, hPD-1/Fc (R & D Systems); assay: protein ELISA, hPD-1/Fc immobilized
[12] = target: T1, human PD-1 (hPD-1) receptor expressed …; assay: FMAT competition on CHO-hPD-1 cells; blocked ligand: fluorescently labelled hPD-L1/Fc at a constant concentration
[13] = target: T4, hPD-1/Fc (R & D Systems); assay: bio-light interferometry (ForteBio Octet), PD-1/Fc on biosensor
[14] = target: T1, human PD-1 (hPD-1) receptor expressed …; assay: FMAT, blockade of labeled hPD-L2/Fc binding to CHO-hPD-1 cells
[15] = target: cynomolgous PD-1 (form in the kinetic assay not stated) (cynomolgus macaque); assay: kinetic analysis, format for cynomolgus PD-1 not stated
[16] = target: T3, cynomolgus macaque PD-1 receptor on …; assay: inhibition of ligand (PD-L1, PD-L2) binding to cynomolgous PD-1
[17] = target: T4, hPD-1/Fc (R & D Systems); assay: bio-light interferometry (ForteBio Octet), PD-1/Fc on biosensor; remark: listed apart in the source
[18] = target: T1, human PD-1 (hPD-1) receptor expressed …; assay: FMAT, blockade of hPD-L1/Fc binding to CHO-hPD-1 cells
[19] = target: T1, human PD-1 (hPD-1) receptor expressed …; assay: FMAT, blockade of hPD-L2/Fc binding to CHO-hPD-1 cells
[20] = target: T1, human PD-1 (hPD-1) receptor expressed …; assay: CELISA on CHO-hPD-1 cells; remark: listed apart in the source
[21] = target: T4, hPD-1/Fc (R & D Systems); assay: protein ELISA, hPD-1/Fc immobilized; remark: listed apart in the source

T3 sequence (B0LAJ3 entry or part of it limits assumed): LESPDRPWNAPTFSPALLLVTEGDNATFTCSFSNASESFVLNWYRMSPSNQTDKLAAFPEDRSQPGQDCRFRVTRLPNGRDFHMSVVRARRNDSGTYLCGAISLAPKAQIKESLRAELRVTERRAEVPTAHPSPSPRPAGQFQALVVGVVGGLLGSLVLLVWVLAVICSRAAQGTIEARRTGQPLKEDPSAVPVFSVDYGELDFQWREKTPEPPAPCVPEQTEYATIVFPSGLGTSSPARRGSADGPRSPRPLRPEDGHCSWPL
T1 sequence (Q15116 25-288): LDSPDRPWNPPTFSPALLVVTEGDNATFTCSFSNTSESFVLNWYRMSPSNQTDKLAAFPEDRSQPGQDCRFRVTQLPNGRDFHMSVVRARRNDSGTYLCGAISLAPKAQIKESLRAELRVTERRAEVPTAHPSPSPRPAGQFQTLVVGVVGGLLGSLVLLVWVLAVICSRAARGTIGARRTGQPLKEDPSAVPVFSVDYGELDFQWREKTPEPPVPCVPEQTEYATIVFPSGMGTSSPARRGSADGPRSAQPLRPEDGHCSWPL
T4 sequence (Q15116 25-167 limits assumed): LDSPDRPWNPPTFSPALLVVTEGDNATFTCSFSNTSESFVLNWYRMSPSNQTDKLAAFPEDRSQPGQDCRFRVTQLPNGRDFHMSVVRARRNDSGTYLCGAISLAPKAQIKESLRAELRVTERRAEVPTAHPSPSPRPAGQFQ

B1: hPD-1.09A (antibody, V domains shown)
VH: QVQLQQPGAELVKPGTSVKLSCKASGYTFTNYYMYWVKQRPGQGLEWIGGINPSNGGTNFNEKFKNKATLTVDSSSSTTYMQLSSLTSEDSAVYYCTRRDYRFDMGFDYWGQGTTLTVSS
VL: DIVLTQSPASLAVSLGQRAAISCRASKGVSTSGYSYLHWYQQKPGQSPKLLIYLASYLESGVPARFSGSGSGTDFTLNIHPVEEEDAATYYCQHSRDLPLTFGTGTKLELK
- EC50 (read off the curve) [1]: ~0.1 nM
- binding result [2]: no binding
- IC50 (read off the curve) [3]: ~2 nM
- binding result [4]: binds
- IC50 [5]: 0.0008 nM
- fold change in IFNgamma, SEB stimulated blood of patient A (prostate), 25 ug/mL hPD-1.09A vs SEB alone [6]: 1.9 fold
- fold change in IFNgamma, SEB stimulated blood of patient B (prostate), 25 ug/mL hPD-1.09A vs SEB alone [6]: 1.2 fold
- fold change in IFNgamma, SEB stimulated blood of patient C (prostate), 25 ug/mL hPD-1.09A vs SEB alone [6]: 2 fold
- fold change in IFNgamma, SEB stimulated blood of patient D (melanoma), 25 ug/mL hPD-1.09A vs SEB alone [6]: 1.5 fold
- fold change in IL-2, SEB stimulated blood of patient A (prostate), 25 ug/mL hPD-1.09A vs SEB alone [6]: 3.4 fold
- fold change in IL-2, SEB stimulated blood of patient B (prostate), 25 ug/mL hPD-1.09A vs SEB alone [6]: 2.1 fold
- fold change in IL-2, SEB stimulated blood of patient C (prostate), 25 ug/mL hPD-1.09A vs SEB alone [6]: 2 fold
- fold change in IL-2, SEB stimulated blood of patient D (melanoma), 25 ug/mL hPD-1.09A vs SEB alone [6]: 2 fold
- fold change in IL-5, SEB stimulated blood of patient A (prostate), 25 ug/mL hPD-1.09A vs SEB alone [6]: 0.7 fold
- fold change in IL-5, SEB stimulated blood of patient B (prostate), 25 ug/mL hPD-1.09A vs SEB alone [6]: 0.4 fold
- fold change in IL-5, SEB stimulated blood of patient C (prostate), 25 ug/mL hPD-1.09A vs SEB alone [6]: 0.9 fold
- fold change in IL-5, SEB stimulated blood of patient D (melanoma), 25 ug/mL hPD-1.09A vs SEB alone [6]: 0.4 fold
- fold change in IL-6, SEB stimulated blood of patient A (prostate), 25 ug/mL hPD-1.09A vs SEB alone [6]: 2.1 fold
- fold change in IL-6, SEB stimulated blood of patient B (prostate), 25 ug/mL hPD-1.09A vs SEB alone [6]: 2.2 fold
- fold change in IL-6, SEB stimulated blood of patient C (prostate), 25 ug/mL hPD-1.09A vs SEB alone [6]: 2.4 fold
- fold change in IL-6, SEB stimulated blood of patient D (melanoma), 25 ug/mL hPD-1.09A vs SEB alone [6]: 1.9 fold
- fold change in IL-13, SEB stimulated blood of patient A (prostate), 25 ug/mL hPD-1.09A vs SEB alone [6]: 0.8 fold
- fold change in IL-13, SEB stimulated blood of patient B (prostate), 25 ug/mL hPD-1.09A vs SEB alone [6]: 0.6 fold
- fold change in IL-13, SEB stimulated blood of patient C (prostate), 25 ug/mL hPD-1.09A vs SEB alone [6]: 1.1 fold
- fold change in IL-13, SEB stimulated blood of patient D (melanoma), 25 ug/mL hPD-1.09A vs SEB alone [6]: 0.5 fold
- fold change in IL-17, SEB stimulated blood of patient A (prostate), 25 ug/mL hPD-1.09A vs SEB alone [6]: 1.8 fold
- fold change in IL-17, SEB stimulated blood of patient B (prostate), 25 ug/mL hPD-1.09A vs SEB alone [6]: 2.6 fold
- fold change in IL-17, SEB stimulated blood of patient C (prostate), 25 ug/mL hPD-1.09A vs SEB alone [6]: 2.4 fold
- fold change in IL-17, SEB stimulated blood of patient D (melanoma), 25 ug/mL hPD-1.09A vs SEB alone [6]: 2 fold
- fold change in TNFalpha, SEB stimulated blood of patient A (prostate), 25 ug/mL hPD-1.09A vs SEB alone [6]: 2 fold
- fold change in TNFalpha, SEB stimulated blood of patient B (prostate), 25 ug/mL hPD-1.09A vs SEB alone [6]: 1.5 fold
- fold change in TNFalpha, SEB stimulated blood of patient C (prostate), 25 ug/mL hPD-1.09A vs SEB alone [6]: 2.4 fold
- fold change in TNFalpha, SEB stimulated blood of patient D (melanoma), 25 ug/mL hPD-1.09A vs SEB alone [6]: 1.9 fold
- IC50 [7]: < 1 nM
- Kd [8]: 0.02 nM
- EC50 [9]: 0.113 nM
- IC50 [10]: 0.0009 nM
- EC50 [11]: 0.123 nM
- IC50 (read off the curve) [12]: ~0.8 nM
- Kd [13]: 0.022 nM
- koff [13]: 3.6e-05 s⁻¹
- kon [13]: 1.64e+06 M⁻¹ s⁻¹
- IC50 [14]: 0.0017 nM

B2: hPD-1.08A (antibody, V domains shown)
VH: QVQLQQPGAELVKPGASVKLSCKASGYTFTSYYLYWMKQRPGQGLEWIGGVNPSNGGTNFSEKFKSKATLTVDKSSSTAYMQLSSLTSEDSAVYYCTRRDSNYDGGFDYWGQGTTLTVSS
VL: B1 VL with A9T, A20T, G28S, Y34F, S47P, Y53F, Y57N, R96W, D97E, T104A
- EC50 (read off the curve) [1]: ~0.08 nM
- binding result [2]: no binding
- IC50 (read off the curve) [3]: ~2 nM
- binding result [4]: binds
- IC50 [5]: 0.0009 nM
- IC50 [7]: < 1 nM
- EC50 [9]: 0.079 nM
- IC50 [10]: 0.00073 nM
- EC50 [11]: 0.076 nM
- IC50 (read off the curve) [12]: ~0.7 nM
- Kd [13]: 0.0241 nM
- koff [13]: 3.03e-05 s⁻¹
- kon [13]: 1.25e+06 M⁻¹ s⁻¹
- IC50 [14]: 0.0021 nM

B3: h409A11 (antibody, human IgG4 S228P, kappa, V domains shown)
VH: QVQLVQSGVEVKKPGASVKVSCKASGYTFTNYYMYWVRQAPGQGLEWMGGINPSNGGTNFNEKFKNRVTLTTDSSTTTAYMELKSLQFDDTAVYYCARRDYRFDMGFDYWGQGTTVTVSS
VL: EIVLTQSPATLSLSPGERATLSCRASKGVSTSGYSYLHWYQQKPGQAPRLLIYLASYLESGVPARFSGSGSGTDFTLTISSLEPEDFAVYYCQHSRDLPLTFGGGTKVEIKR
notes: also called humanized IgG4 version of 09A antibody (409A-H + K09A-L-11)
- Kd [15]: < 0.12 nM
- IC50 [16]: < 1 nM

B4: h409A16 (antibody, human IgG4 S228P, kappa, V domains shown)
VH: B3 VH
VL: EIVLTQSPLSLPVTPGEPASISCRASKGVSTSGYSYLHWYLQKPGQSPQLLIYLASYLESGVPDRFSGSGSGTDFTLKISRVEAEDVGVYYCQHSRDLPLTFGQGTKLEIKR
notes: also called humanized IgG4 version of 09A antibody (409A-H + K09A-L-16)
- Kd [17]: 0.0273 nM
- koff [17]: 2.72e-05 s⁻¹
- kon [17]: 997000 M⁻¹ s⁻¹
- IC50 [18]: 0.696 nM
- Kd [15]: < 0.12 nM
- IC50 [19]: 0.81 nM
- EC50 [20]: 0.063 nM
- EC50 [21]: 0.09 nM
- IC50 [16]: < 1 nM

B5: h409A17 (antibody, human IgG4 S228P, kappa, V domains shown)
VH: B3 VH
VL: B4 VL with E1D, L4M, S7T, D74A, V89L
notes: also called humanized IgG4 version of 09A antibody (409A-H + K09A-L-17)
- Kd [17]: 0.191 nM
- koff [17]: 0.000191 s⁻¹
- kon [17]: 1e+06 M⁻¹ s⁻¹
- IC50 [18]: 0.818 nM
- IC50 [19]: 0.463 nM
- EC50 [20]: 0.083 nM
- EC50 [21]: 0.088 nM
- IC50 [16]: < 1 nM
